Results published in US20040248211A1, “ICAM-related protein” (priority 1992, published 2004).

Assays:
[1] = target: LFA-1 (CD11a/CD18) on cells (human) (UniProt P20701); assay: SKW3 cell adhesion to plate-bound shICAM-R, peptide 1-2 mg/ml
ICAM-1/IgG chimera = ICAM-1/IgG chimera (UniProt P05362); assay: adhesion of transfected CHO cells to immobilized chimera, with PMA
[2] = target: LFA-1 (CD11a/CD18) on cells (human) (UniProt P20701); assay: neutrophil adhesion to immobilized ICAM-R/Ig, mAb 15 µg/ml
[3] = target: LFA-1 (CD11a/CD18) on cells (human) (UniProt P20701); assay: JY cell adhesion to shICAM-R, mAb 10 µg/ml

LFA-1 (CD11a/CD18) on cells (human), sequence (P20701 26-1170, chain 1 of 2): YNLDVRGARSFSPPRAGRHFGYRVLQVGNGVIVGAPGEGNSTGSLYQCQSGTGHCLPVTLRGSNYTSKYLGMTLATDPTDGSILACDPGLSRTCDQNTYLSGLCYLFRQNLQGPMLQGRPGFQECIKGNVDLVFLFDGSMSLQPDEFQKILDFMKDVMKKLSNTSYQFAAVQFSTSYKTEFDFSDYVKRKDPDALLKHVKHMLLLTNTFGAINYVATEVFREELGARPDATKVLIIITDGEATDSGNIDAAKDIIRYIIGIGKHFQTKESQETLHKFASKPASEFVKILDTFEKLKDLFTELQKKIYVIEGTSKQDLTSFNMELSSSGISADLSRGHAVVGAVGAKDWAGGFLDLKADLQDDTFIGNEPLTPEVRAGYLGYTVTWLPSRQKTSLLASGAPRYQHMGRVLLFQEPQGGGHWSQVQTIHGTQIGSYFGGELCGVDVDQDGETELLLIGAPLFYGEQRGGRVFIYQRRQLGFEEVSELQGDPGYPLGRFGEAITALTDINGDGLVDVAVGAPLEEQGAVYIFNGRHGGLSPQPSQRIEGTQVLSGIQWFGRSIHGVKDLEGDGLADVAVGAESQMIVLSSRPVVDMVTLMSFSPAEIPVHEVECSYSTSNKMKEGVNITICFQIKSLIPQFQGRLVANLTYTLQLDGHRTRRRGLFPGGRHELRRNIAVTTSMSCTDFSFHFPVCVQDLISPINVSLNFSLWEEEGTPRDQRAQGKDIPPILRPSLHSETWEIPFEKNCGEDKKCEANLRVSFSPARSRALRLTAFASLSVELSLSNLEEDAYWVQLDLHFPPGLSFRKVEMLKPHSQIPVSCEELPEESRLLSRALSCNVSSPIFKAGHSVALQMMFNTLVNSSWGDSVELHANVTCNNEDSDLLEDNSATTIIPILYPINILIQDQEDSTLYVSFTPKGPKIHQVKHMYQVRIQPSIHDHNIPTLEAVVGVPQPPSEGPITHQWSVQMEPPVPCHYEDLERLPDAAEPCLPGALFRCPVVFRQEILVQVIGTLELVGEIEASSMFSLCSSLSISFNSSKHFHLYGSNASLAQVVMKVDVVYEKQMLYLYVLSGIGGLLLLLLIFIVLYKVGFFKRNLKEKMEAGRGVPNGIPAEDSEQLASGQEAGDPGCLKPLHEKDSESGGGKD
LFA-1 (CD11a/CD18) on cells (human), sequence (P05107 23-769, chain 2 of 2, further chain): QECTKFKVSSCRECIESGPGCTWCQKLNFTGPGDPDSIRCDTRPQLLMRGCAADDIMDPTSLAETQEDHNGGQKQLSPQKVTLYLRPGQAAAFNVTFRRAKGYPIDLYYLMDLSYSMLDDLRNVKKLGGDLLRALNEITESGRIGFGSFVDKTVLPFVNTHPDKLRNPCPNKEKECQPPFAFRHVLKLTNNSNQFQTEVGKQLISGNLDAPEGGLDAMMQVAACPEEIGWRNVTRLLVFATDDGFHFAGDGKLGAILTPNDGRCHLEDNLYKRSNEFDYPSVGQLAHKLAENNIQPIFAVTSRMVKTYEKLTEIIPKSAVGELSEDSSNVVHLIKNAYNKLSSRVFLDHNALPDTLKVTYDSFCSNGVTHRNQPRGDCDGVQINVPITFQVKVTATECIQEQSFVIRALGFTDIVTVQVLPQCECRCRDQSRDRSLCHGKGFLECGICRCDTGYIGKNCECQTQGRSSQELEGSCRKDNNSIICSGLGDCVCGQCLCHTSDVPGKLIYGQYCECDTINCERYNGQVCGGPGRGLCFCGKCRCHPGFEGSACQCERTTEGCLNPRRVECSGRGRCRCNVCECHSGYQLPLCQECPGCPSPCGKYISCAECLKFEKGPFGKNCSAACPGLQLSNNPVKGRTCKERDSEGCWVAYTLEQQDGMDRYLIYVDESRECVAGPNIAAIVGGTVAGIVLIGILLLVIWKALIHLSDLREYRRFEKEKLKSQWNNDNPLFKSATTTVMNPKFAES
ICAM-1/IgG chimera, sequence (P05362 28-480 limits assumed, change not shown): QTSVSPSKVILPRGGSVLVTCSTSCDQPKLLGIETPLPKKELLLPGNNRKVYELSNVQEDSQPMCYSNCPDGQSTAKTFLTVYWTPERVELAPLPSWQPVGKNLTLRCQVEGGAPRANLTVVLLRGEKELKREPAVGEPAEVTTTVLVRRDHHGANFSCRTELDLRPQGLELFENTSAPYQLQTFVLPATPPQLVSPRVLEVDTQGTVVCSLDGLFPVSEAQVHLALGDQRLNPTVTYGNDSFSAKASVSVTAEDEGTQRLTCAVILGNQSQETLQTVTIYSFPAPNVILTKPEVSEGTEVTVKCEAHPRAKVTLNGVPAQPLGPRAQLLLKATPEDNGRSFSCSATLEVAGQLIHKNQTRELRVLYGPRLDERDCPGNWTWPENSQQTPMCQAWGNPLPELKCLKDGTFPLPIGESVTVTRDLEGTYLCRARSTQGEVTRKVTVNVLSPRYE
LFA-1 (CD11a/CD18) on cells, sequence (P20701 26-1170): as the sequence (P20701 26-1170, chain 1 of 2) above
LFA-1 (CD11a/CD18) on cells, sequence (P05107 23-769): as the sequence (P05107 23-769, chain 2 of 2, further chain) above

Q: How did the % Inhibition of cell binding to shICAM-R [1] turn out when “ICAM-R domain 1 peptide NGSQI, residues 72-76” was run?
A: Its % Inhibition of cell binding to shICAM-R is 26%.

Q: For “LFA-1 (CD11a/CD18) on cells (from UniProt P20701 26-1170; P05107 23-769) (receptor; other documents disagree on this pair)”, which fold increase in binding (ICAM-1/IgG chimera) is on record?
A: The fold increase in binding was 2 to 3 fold.

Q: How did the % inhibition of neutrophil binding to ICAM-R [2] turn out when anti-CD11a monoclonal antibody TS1/22 was run?
A: Its % inhibition of neutrophil binding to ICAM-R is 50%.

Q: Which Inhibition (%) of CD18-dependent JY cell binding [3] does the source give for anti-CD18 monoclonal antibody 60.3 here?
A: The Inhibition (%) of CD18-dependent JY cell binding was 100%.
